# Assays:
# TFECDHis (human) [1] = molecular target: TFECDHis (human) (UniProt P13726); test: cross-competition ELISA; competitor: coated 114
# TFECDHis (human) [2] = molecular target: TFECDHis (human) (UniProt P13726); test: SPR (BIAcore 3000), antibody immobilized, TFECDHis as analyte
# TFECDHis (human) [3] = molecular target: TFECDHis (human) (UniProt P13726); test: cross-competition ELISA; competitor: coated 44
# TFECDHis (human) [4] = molecular target: TFECDHis (human) (UniProt P13726); test: cross-competition ELISA; competitor: coated 111
# TFECDHis (human) [5] = molecular target: TFECDHis (human) (UniProt P13726); test: cross-competition ELISA; competitor: coated 11
# TFECDHis (human) [6] = molecular target: TFECDHis (human) (UniProt P13726); test: cross-competition ELISA; competitor: coated 092-A09
# TFECDHis (human) [7] = molecular target: TFECDHis (human) (UniProt P13726); test: cross-competition ELISA; competitor: coated 087-Lg6
# TFECDHis (human) [8] = molecular target: TFECDHis (human) (UniProt P13726); test: ELISA, coated TFECDHis; mean of 3 experiments
# TFECDHis (human) [9] = molecular target: TFECDHis (human) (UniProt P13726); test: cross-competition ELISA; competitor: coated 101
substance,measurement,setting,value
HuMab-TF-011 (antibody),competition value (unit not given),TFECDHis (human) [1],19
same,Kd,TFECDHis (human) [2],3.15 nM
same,competition value (unit not given),TFECDHis (human) [3],143
same,competition value (unit not given),TFECDHis (human) [4],175
same,competition value (unit not given),TFECDHis (human) [5],20
same,competition value (unit not given),TFECDHis (human) [6],21
same,competition value (unit not given),TFECDHis (human) [7],929
same,EC50,TFECDHis (human) [8],0.16 nM
same,competition value (unit not given),TFECDHis (human) [9],23
